One may read the Kd as a measure of binding affinity in units of concentration.

For assay [1], the target named is T1, talin1 F2F3 domains.
T1 chain: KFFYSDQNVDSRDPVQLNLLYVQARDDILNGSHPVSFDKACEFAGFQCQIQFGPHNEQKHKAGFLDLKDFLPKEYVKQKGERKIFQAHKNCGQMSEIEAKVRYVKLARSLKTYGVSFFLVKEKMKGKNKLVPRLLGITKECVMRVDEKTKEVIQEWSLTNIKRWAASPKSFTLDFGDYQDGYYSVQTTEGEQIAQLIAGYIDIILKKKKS
Briefly: FP.

The target of assay [2] is T2, talin2 F2F3 domains.
T2 chain: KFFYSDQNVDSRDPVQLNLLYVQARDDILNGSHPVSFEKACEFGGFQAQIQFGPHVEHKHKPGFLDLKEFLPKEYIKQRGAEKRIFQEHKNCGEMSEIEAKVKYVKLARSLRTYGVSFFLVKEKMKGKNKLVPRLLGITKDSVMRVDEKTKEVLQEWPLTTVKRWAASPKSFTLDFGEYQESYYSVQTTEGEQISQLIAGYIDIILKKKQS
Briefly: FP.

Ends that are not written are not given here.

B1: β1A (peptide)
chain: KLLMIIHDRREFAKFEKEKMNAKWDTGENPIYKSAVTTVVNPKYEGK
modifications: not fully specified (N-terminus)
In turn, B1 had a Kd in assay [1] of 95.1 µM.

B2: β1A (peptide)
chain: KLLMIIHDRREFAKFEKEKMNAKWDTGENPIYKSAVTTVVNPKYEGK
modifications: not fully specified (N-terminus)
In turn, B2 returned a dissociation constant Kd in assay [2] of 35.3 µM.

The record behind these values is publication PMC11597407 (2024).
